Laboratory results: article PMC11452484 (Nature Communications, 2024)

Biological target: the molecule itself
Test: cryo-EM structure

Protein | stoichiometry N | binding result
G. sulfurreducens SPARSA complex (short pAgo/Sir2-APAZ heterodimer) (complex) chain 1: not shown chain 2: MDVLTDNEFYQHYLQNSQHMMWFLGAGTSRSAGLPTASDIIWDLKHRYYCLHENQDYQKHDINNHAIKSKIQSYMDSKGFPLQWSPEEYSFYFELVFRDDYEAQRKYLLEALASRKVSLNIGHRVLAALLEMNQTKVVFTTNFDDVIETAFSDISGKHLSVYHLEGSYAALSALNTEAFPIYAKIHGDFRYQKIKNLTPDLQTNDREIHKCFLAAAIRFGLVVSGYSGRDENVMTMLRAAIDQNNAFPHGLYWTVPSISKSEPAVQDLITYAQGKGVRAYLVETGTFDEMLSKIWRQVKDKPAAIDAKVRTARVCPVSIPLPGPGKSFPALRTNALPVVTQSIRCGVVTLASPITFSELKERISQKSPKALLTYTEKVLFLGGEPEIRKIFSNDEINSIGQYYIDEIAQSVAASTFLKSFVEEAILTALLREKPILHRVRHRTHYAVIPNASAKDDRFLDLRKAVGFKGDLGYITGNVTNAKELSWAEAVSIRLEERGGKLWIMLKPEIWIKPLDRREEATDFIRSRRRYRFNQCSYQILDAWIKILFGSIGGGGTVNISCFPDAEFKAEFEIGTRTAFSLGVGYGR | 4 | –
Geobacter sulfurreducens Sir2-APAZ (natural protein, UniProt Q74DF6 1-587, looked up) MDVLTDNEFYQHYLQNSQHMMWFLGAGTSRSAGLPTASDIIWDLKHRYYCLHENQDYQKHDINNHAIKSKIQSYMDSKGFPLQWSPEEYSFYFELVFRDDYEAQRKYLLEALASRKVSLNIGHRVLAALLEMNQTKVVFTTNFDDVIETAFSDISGKHLSVYHLEGSYAALSALNTEAFPIYAKIHGDFRYQKIKNLTPDLQTNDREIHKCFLAAAIRFGLVVSGYSGRDENVMTMLRAAIDQNNAFPHGLYWTVPSISKSEPAVQDLITYAQGKGVRAYLVETGTFDEMLSKIWRQVKDKPAAIDAKVRTARVCPVSIPLPGPGKSFPALRTNALPVVTQSIRCGVVTLASPITFSELKERISQKSPKALLTYTEKVLFLGGEPEIRKIFSNDEINSIGQYYIDEIAQSVAASTFLKSFVEEAILTALLREKPILHRVRHRTHYAVIPNASAKDDRFLDLRKAVGFKGDLGYITGNVTNAKELSWAEAVSIRLEERGGKLWIMLKPEIWIKPLDRREEATDFIRSRRRYRFNQCSYQILDAWIKILFGSIGGGGTVNISCFPDAEFKAEFEIGTRTAFSLGVGYGR | – | binds
